Test results reported in the DeepSol protein solubility set.

Assay: soluble on expression in E. coli; label from the status in PepcDB or PDB records

Sequence | soluble on expression in E. coli
MGSDKIHHHHHHMGKGFTGAILTVMGVKSHIATTTGKTVINDRMVTIHFHSETLLNTEGEVPGDWLRLWFPHESRPGKLYQRAYTLTNVDADAGTFDLAFVLHEPLGPASAWATRCEAGESLEVMRYPGIPFAIPDPAPRGFLFLGDLTSYPAICSILETLDGEIPATAYLIAHDPLDYTFDFPQGEHITAQWISNEQSFIDHIADTDYTDFYTWIGAESSETRAAKKHLQTHAGMPKTHMNAQGYWNKGRAMGKSN | not soluble
MSNKEYRPTLAQLRTFATIAENKHFGTAAAKLSISQPSLSQALAALENGLGVQLIERSTRRVIVTPAGEMLLPYAKATLDAADAFLAHAH | soluble
MNILLFGKTGQVGWELQRSLAPVGNLIALDVHSKEFCGDFSNPKGVAETVRKLRPDVIVNAAAHTAVDKAESEPELAQLLNATSVEAIAKAANETGAWVVHYSTDYVFPGTGDIPWQETDATSPLNVYGKTKLAGEKALQDNCPKHLIFRTSWVYAGKGNNFAKTMLRLAKERQTLSVINDQYGAPTGAELLADCTAHAIRVALNKPEVAGLYHLVAGGTTTWHDYAALVFDEARKAGITLALTELNAVPTSAYPTPASRPGNSRLNTEKFQRNFDLILPQWELGVKRMLTEMFTTTTI | soluble
MAQNNENALPDITKSITLEAPIQKVWETVSTSEGIAKWFMPNDFQLKEGQEFHLQSPFGPSPCKVLAVQAPTELSFEWDTEGWVVTFQLEDLGEKTGFTLIHSGWKEPNEVIGKANEKSSVVRGKMDGGWTGIVNERLRKAVEELEHHHHHH | soluble
MTVETQLNPTQPVNQQIYRILRRDIVHCLIPPGTPLSEKEVSTRFNVSRQPVREAFIKLAENGLIQIRPQRGSYVNKISLSQVQNGCFVRQAIECAVVRRAAAMITDNQCYQLAQNLHLQHIAIERKQIDDFFQLDDDFHQKLAQIADCQLAWDTIENIKATIDRVRYMSLDHVSPPEMLLRQHHDIFSALENRDGNAVESAMTQHLQEISESVQLIRQENSGWFSEE | not soluble
MIMASSAAASISMITLRNLSRNHQSHQSTFLGFSRSFHNQRISSNSPGLSTRARSTTSSTGGFFRTICSSSSNDYSRPTKIQELNVYEFNEGDRNSPAVLKLGKKPDQLCLGDLVPFTNKLYTGDLTKRIGITAGLCVLIQHVPEKKGDRFEASYSFYFGDYGHISVQGPYLTYEDTFLAITGGSGVFEGAYGQVKLRQLVYPTKLFYTFYLKGVAADLPVELTGKHVEPSKEVKPAAEAQATQPGATIANFTN | soluble
MGLRRGWTPPWPLDLGIVLGPLRRGPGDPTFRTTPDGAVWRASRTPAGPGTLRVALRGGAVEAEAWGPGAEWLLHQLPEMLGSADDPDAFEPRHRLVAVTRHRRPGLRLTRTGLVLESLIPSVLEQKVTADEAYRAWRLLVRKFGEPAPGPVEGRMHVMPEPRTWALIPSWEWHRAGVDNKRASTILRAVRVAARLEQAMGMEPAQAQARLEVVSGIGPWTSAETVQRSHGAADSVTVGDLHLPRIVGYALAGDRDADDAAMLELLAPYAGQRHRAARLILLSGRTPPAAALEHHHHHH | not soluble
MGSDKIHHHHHHMQQFPRLARVGLGFRRELIPALKSGVPATIDFFEIAPENWIDLGGGAARDLLFFTERYPFVCHGLSLSIGGPAPLDEILLQKIRQFLDQHRVLLYTEHLSYCSDDGHLYDLLPIPFTEEAVKYVAERVRRTQDILERRIALENASFYVASPISDMSELDFIRAVLLEADCDLHLDVNNVYVNSINHDYDPVDFIRALPSDRIVYMHMAGHHKEAENLIIDTHGADVIDPVWSLLDQTYGMHGVAPTLLERDFNIPPLEQLMREVLHIALIQAQHADSGDASAT | not soluble
MGMVGFRRSRHRRLGAGCGRAGGCMSGVEVITFGCRLNTYESEVMRAEAEKAGLNNAVLVNTCAVTGEAVRQARQAIRRARRDNPHARIIVTGCAAQTEKQTFADMPEVDAVLGNEEKLKSASYRALPDFGVSAEEKLRVNDIMSIKATAPQMVKHIDGHVRAFIQVQNGCDHRCTFCIIPYGRGNSRSVPMGAVVDQARRLTESGYCEIVLTGVDATSYGADLPGEPSLGYLAKTLLKQVPDIIRLRLSSIDSIEADHHLMDLIADEPRFMPHLHLSLQHGDDMILKRMKRRHLRADAIRFCNEVRSLRPDIAFGADMIAGFPTETEEMLENAATLAEECGISSLHVFPYSPREGTPAVRMPQLDRALVKERAGRLRARGEALKQAHLQNMVGSVQTVLVENSGFAHTDNFTLVAAPDLAPRTLAQVAITGHNGKHLNMKLLAADAALEHHHHHH | not soluble
MSLENISETLRTLMNRKNLNHRYEALMTAVYQDPDVRQFLAAHQNELSSDALERSAAKLYEFCEEKRKIARHEPTQAPGYQPTLVMSNHLIDIAYQPTPQMQEQQAAHALQQRVRSISMPKNIQTADLKTYDQDGDRATALMAALDFIDAYTQAPKRFHRGLYLYGSFGVGKTYLLGGMANALAAKGFNTTLIHFPSFAVEMKRSISNNTSADKVDAIKRAPILMIDDIGADASSTWIRDDVLGVILEYRMQEELPTCFSSNFSMQELQDGYLTLSQKGDEEPVKAQRIMQRVRYLASEIEMVGRNRRLNPDAEGHHHHHH | soluble
MTFLDKIKQGCLDGWAKYKILPSLTAAQAILESGWGKHAPHNALFGIKADASWTGKSFNTKTQEEYQAGVITDIVDRFRAYDSWDESIADHGQFLVDNPRYQSVIGEADYKKACHAIKDAGYATASGYAELLIQIIEENNLQKWDKEAIVRKEKQMINSQCREVIEFFINLANAGMGVDKDSFAGWQCADVPCYAAKHWFDVDLWGNAIDLLDSAAAVGWEVHRMPTDANPLTGAFFVQSVPYHQFGHTGIVIEDSDGYTMRTVEQNIDGNPDALYVGAPARFNTRDFTGVIGWFYPPYQGDTVTQPVSTEPQTSETIVETAKTGTFTLDVAEINIRRWPSLASEVVGSYKQGDTVSFDNEGYANGYYWISYVGGSGMRNYLGIGQTDKDGNRISLWGKLNLEHHHHHH | soluble
MSLELKPKRFLVLDDQLVLRKLISRQASFFTRFAVEIDEFSDPAEALRSIAEGGYHLVITDIGMPGMNGIDFIKNVARLGYQSALLIISGYDGKTLQTIADMSVNLGLSCTRFLSKPYSAEAFVAALNGIFSEMERSEAPAVGDVAQLLADLGGETFRMQFAPVRSLHGRRLAGFTLRTLQLPDGRRLAFDRLLALLAGRRMASAALLEIVVERTARLLQDMRLSAGIDDCRVNIRIDEACLSADNVFDRCFMALQQSEVSPACLGFALADGLNRRSDALCFENIAKVKYLGFRLLADGFGQGSLTVSNLFRLPFDQVNAPLEALQWMKILQGEDPGAFRLLRSFGLGQAPVCATGLDDEESLALAQALGCGLGEGDAVSLAVPEEELLQEMAAVPEGEGHHHHHH | soluble
MGSDKIHHHHHHMDISIGDDSNGAVISIVGSHLDKLNLNGTAILLERYDDSPTHFGSAFLFPYANRVRNGEFTLDGKRYFLPKDDENNSIHGLVLSKKFDLVEKIENSVTMRYIMADECYPSPIEIFITHTVSEGKYTCRVKASNRGLTRAPVSAGFHPYFLYNGRWAIKKPRDTWKLEYDGQFPTGKMDKFLFEEDSFMHEFDNQFFADEDIVVDMGSHMIQIERENMPFFVIYNGKYSGGKSVAIEPMMSAVDAFNNGIGLRIVNPGESIEFAYSVEIRE | not soluble
MVRRLTSPRLEFEAAAIYEYPEHLHSFLNDLPTRPGVYLFHGESDTMPLYIGKSVNIRSRVLSHLRTPDEAAMLRQSRRISWICTAGEIGALLLEARLIKEQQPLFNKRLRRNRQLCALQLNEKRVDVVYAKEVDFSRAPNLFGLFANRRAALQALQSIADEQKLCYGLLGLEPLSRGRACFRSALKRCAGACCGKESHEEHALRLRQSLERLRVVCWPWQGAVALKEQHPEMTQYHIIQNWLWLGAVNSLEEATTLIRTPAGFDHDGYKILCKPLLSGNYEITELDPANDQRAS | not soluble
MFLTRSEYDRGVNTFSPEGRLFQVEYAIEAVKLGSTSIGIKTSEGVLLAAEKRSTSKLMVNDAIEKISKVDQHIGVTFAGLIADSRTLVERAQIEAQNFWFTYNRKIRVEDVTQSVANLALQFGDDDVKASMSRPFGVAMLFAGVDQEGAKLFHLDPSGTFIDCKAKSIGAASDGAEQNLKEQYHDALTIKEGLKMALAILKQVMEEKLNSANVEVVVIKPTVDAKGRPIGEFTRVSNEELDQVITSL | not soluble
